What was measured:
[1] = target: T1, red blood cells expressing function-capable P2X7 receptor (Mus musculus, UniProt Q9Z1M0); assay: Binding to red blood cells in tumour sections; format: in vivo; settings: adjacent red blood cells in Lewis Lung tumour section
T1 construct: from tissue; host or cells: red blood cells in formalin-fixed Lewis Lung tumour sections from antibody-treated mice
T1 sequence (Q9Z1M0 1-595): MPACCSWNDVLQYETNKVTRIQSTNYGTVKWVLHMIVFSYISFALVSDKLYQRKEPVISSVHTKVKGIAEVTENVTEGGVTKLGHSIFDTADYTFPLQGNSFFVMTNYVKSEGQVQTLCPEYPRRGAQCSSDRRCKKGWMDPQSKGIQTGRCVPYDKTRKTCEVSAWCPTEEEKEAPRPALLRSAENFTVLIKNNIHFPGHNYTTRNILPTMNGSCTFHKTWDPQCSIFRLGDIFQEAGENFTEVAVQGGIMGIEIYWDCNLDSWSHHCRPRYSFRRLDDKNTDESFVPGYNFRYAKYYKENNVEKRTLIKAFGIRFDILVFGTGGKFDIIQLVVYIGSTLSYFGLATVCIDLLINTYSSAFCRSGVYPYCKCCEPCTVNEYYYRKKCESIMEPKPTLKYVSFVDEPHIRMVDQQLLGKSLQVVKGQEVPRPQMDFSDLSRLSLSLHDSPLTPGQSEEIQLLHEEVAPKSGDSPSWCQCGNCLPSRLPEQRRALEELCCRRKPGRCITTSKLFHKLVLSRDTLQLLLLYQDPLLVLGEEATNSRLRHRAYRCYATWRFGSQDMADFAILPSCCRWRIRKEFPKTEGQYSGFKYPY
Protocol: Female BALB/c mice inoculated with the orthotopic syngeneic 4T1 murine mammary tumours in their third mammary fat pads or NOD/SCID female mice inoculated with the orthotopic human Hep3b xenograft tumour in their livers were treated intravenously with either a human domain antibody (2-2-1 hFc) directed at a monomeric target (epitope E200 on P2X7) or 2F6-hIgG1 directed at the compound epitope E200-300. All procedures approved by the Animal Ethics Committee at The University of Adelaide (M46-2008). Antibody penetration into the tumours was measured using Jackson Immunosearch goat anti-human antibody on tumour sections that were removed from the mice two days post antibody treatment. The tumours were fixed in 10% neutral buffered formalin for 48 hours, embedded in paraffin, sectioned to 5 um, deparaffinized, and stained for human antibody. The Biocare Mach 4 secondary detection system was used, comprising a specific goat antibody probe followed by a polymer with HRP then stained with DAB.

[2] = system: 4T1 mouse breast tumour cells; assay: 4T1 syngeneic xenograft model, lung metastases; format: in vivo; parameters: number of lung metastases, % of control / average metastasis volume, % of control / reduction of total metastasis volume / total metastasis volume, % of control: concentration or dose not given beside the values; settings: Day 14
Protocol: Reagents for culture of 4T1 mouse breast tumour cells were obtained from the following suppliers: RPMI 1640 cell culture medium, FCS, Glutamax, HBSS and penicillin-streptomycin from Invitrogen Australia (Mt Waverley, VIC, Australia); and Trypan Blue from Sigma-Aldrich (Castle Hill, NSW, Australia). Matrigel™ was obtained from BD Biosciences (North Ryde, NSW, Australia).
Tumour cells (Passage 2 from working stock) were cultured in RPMI 1640 cell culture medium, supplemented with 10% FCS, 1% Glutamax and 1% penicillin-streptomycin. The cells were harvested by trypsinisation, washed twice in HBSS and counted. The cells were then resuspended in HBSS:Matriger™ (1:1, v/v) to a final concentration of 5×10^7 cells/mL.
(§1) Dosing occurred every 3 days at antibody concentrations of 1 or 10 mg/kg i.v. or with PBS for treatment control or Sorafenib at 5 mL/kg daily as a positive control in the Lewis Lung model. Mice were randomised into equal groups of 10 mice, based on tumour volume on Day 0 of the studies.
(§2) Mice were anaesthetised for blood collection and euthanised by exsanguination via terminal cardiac bleed 48 hours post-final dose, on Days 11 or 14 post-initial treatment.
(§3) The lungs were excised from all mice. Lung surface metastases were counted and were categorised according to size: small (<1 mm), medium (≧1 mm and <3 mm) and large (≧3 mm). Excised lungs were preserved in 10% neutral buffered formalin.

Lewis Lung (LL) tumour = assay: Lewis Lung (LL) syngeneic xenograft model, lung metastases; format: in vivo, mouse; settings: Day 11
Protocol: as §1, §2, §3
The syngeneic Lewis Lung model was used with additional control groups. Besides the PBS control group of ten mice (Group 1), a positive control group using daily Sorafenib at 5 mL/kg was included (Group 5) along with antibody treatment groups consisting of sheep affinity purified E200-300 polyclonal antibody at 10 mg/kg (Group 2), 2F6-hIgG1 at 1 mg/kg (Group 3) and 2F6-hIgG1 at 10 mg/kg (Group 4).

B1: 2F6 hIgG1: mouse scFv from 2F6 grafted into a human format of type IgG1, expressed in HEK293 cells (antibody, V domains shown)
VH: DVKLVESGGGLVKLGGSLKLSCAASGFTFSSYYMSWVRQTPEKRLELVAAINSNGGSTYYPDTVKGRFTISRDNAKNTLYLQMSSLKSEDTAFYYCTRHYSSRFFDVWGAGTTVTVSS
VL: MADIVMTQSQKFMSTSVGDRVSVTCKASQNVGTNVAWYQQKPGQSPKALIYSASFRYSGVPDRFTGSGSGTDFTLTISNVQSEDLAEFFCQQYNSYPFTFGSGTRLEIK
- labelling of red blood cells [1]: entirely unlabelled
- number of lung metastases ([2]; BALBc mice, i.v. every 3 days): 3.4±0.7
- average metastasis volume [2]: 1.28 mm^3
- average metastasis volume, % of control [2]: 22%
- number of lung metastases, % of control [2]: 53%
- total metastasis volume [2]: 43 mm^3
- total metastasis volume, % of control [2]: 11.8%
- reduction of total metastasis volume ([2]; listed as 2F6-hIgG1): 88%
- reduction of total metastasis volume ([2]; listed as 2F6hIgG1): 89%
- Mean Lung Surface Mets (Lewis Lung (LL) tumour; antibody 1 mg/kg i.v. every 3 days): 0.9
- Mean Lung Surface Mets (Lewis Lung (LL) tumour; antibody 10 mg/kg i.v. every 3 days): 0.2
- inhibition of lung metastases relative to PBS control (Lewis Lung (LL) tumour; antibody 10 mg/kg): 96%

From patent US8835609B2, “Antigen binding sites to non-functional oligomeric P2X7 receptors and methods of use thereof” (Biosceptre International Limited, priority 2009, dated 2014)
